Patent US20160136234A1

What was measured:
Experiment in all cases: cell-based or functional assay
[1] = target: BDNF/NT-3 growth factors receptor (human) (UniProt Q16620)
CHK2(I157T) (h) (human) = CHK2(I157T) (h) (human) (UniProt O96017)
EphB1 (h) (human) = EphB1 (h) (human) (UniProt P54762)
EphB4 (h) (human) = EphB4 (h) (human) (UniProt P54760)
JAK2 (h) (human) = JAK2 (h) (human) (UniProt O60674)
LKB1 (h) (human) = target: T1, LKB1 (h) (human) (UniProt Q15831)
T1 sequence (looked up): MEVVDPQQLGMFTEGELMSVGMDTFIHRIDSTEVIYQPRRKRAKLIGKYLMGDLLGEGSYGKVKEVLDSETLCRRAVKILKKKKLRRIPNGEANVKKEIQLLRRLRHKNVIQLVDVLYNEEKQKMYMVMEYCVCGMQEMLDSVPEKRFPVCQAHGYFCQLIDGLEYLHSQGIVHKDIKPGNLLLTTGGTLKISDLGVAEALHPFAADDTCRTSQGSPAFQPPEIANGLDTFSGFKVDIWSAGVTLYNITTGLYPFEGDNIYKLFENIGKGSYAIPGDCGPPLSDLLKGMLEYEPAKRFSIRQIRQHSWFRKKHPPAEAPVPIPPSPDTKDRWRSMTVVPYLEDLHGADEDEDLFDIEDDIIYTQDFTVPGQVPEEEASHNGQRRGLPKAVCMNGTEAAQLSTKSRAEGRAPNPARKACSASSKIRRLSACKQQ

MARK1 (h) (human) = MARK1 (h) (human) (UniProt Q9P0L2)
MKK6 (h) (human) = MKK6 (h) (human) (UniProt P52564)
PRK2 (h) (human) = PRK2 (h) (human) (UniProt Q16513)
PhKγ2 (h) (human) = target: T2, PhKγ2 (h) (human) (UniProt P15735)
T2 sequence (looked up): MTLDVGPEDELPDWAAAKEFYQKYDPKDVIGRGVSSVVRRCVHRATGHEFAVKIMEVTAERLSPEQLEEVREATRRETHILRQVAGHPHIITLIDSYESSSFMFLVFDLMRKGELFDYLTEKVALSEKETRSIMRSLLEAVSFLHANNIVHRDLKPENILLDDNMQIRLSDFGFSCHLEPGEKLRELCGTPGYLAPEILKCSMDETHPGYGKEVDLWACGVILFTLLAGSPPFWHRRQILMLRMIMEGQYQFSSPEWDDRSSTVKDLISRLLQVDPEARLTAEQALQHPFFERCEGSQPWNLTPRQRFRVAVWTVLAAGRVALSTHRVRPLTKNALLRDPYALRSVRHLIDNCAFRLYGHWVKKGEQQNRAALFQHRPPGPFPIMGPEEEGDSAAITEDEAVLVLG

Rse (h) (human) = target: T3, Rse (h) (human) (UniProt Q06418)
T3 sequence (looked up): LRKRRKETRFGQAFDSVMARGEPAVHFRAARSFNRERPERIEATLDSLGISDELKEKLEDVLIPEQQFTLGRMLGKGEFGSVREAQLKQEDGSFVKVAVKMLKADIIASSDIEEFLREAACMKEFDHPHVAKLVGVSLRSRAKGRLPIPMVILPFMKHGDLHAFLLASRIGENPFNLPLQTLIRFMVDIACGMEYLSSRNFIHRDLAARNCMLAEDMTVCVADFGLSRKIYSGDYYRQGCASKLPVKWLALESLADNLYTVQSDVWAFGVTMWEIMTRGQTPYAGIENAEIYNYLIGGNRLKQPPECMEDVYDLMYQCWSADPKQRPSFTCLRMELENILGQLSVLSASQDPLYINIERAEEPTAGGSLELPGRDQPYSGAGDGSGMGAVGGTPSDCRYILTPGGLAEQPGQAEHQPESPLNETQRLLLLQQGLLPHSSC

[2] = target: SAPK2a(T106M) (h) (human) (UniProt Q16539)
TBK1 (h) (human) = target: T4, TBK1 (h) (human) (UniProt Q9UHD2)
T4 sequence (looked up): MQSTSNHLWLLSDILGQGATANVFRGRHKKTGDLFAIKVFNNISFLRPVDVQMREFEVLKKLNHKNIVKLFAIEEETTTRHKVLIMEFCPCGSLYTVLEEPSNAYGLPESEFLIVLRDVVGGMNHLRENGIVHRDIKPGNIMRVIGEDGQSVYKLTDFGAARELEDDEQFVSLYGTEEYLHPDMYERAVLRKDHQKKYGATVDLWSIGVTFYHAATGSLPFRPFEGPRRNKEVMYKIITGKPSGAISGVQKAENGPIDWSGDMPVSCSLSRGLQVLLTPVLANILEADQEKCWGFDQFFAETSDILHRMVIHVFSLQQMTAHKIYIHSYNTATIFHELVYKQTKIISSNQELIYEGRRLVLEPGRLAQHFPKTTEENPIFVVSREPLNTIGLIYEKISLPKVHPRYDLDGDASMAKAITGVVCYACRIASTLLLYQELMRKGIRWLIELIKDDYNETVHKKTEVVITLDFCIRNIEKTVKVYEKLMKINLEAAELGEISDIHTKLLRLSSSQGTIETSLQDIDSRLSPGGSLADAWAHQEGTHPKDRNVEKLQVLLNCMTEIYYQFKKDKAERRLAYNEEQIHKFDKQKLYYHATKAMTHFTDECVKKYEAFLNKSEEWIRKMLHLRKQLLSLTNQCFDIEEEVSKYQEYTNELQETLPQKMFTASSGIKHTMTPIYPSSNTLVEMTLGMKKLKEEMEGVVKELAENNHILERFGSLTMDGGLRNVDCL

CHK2(I157T) (h) (human), sequence (O96017 5-543 I157T limits assumed): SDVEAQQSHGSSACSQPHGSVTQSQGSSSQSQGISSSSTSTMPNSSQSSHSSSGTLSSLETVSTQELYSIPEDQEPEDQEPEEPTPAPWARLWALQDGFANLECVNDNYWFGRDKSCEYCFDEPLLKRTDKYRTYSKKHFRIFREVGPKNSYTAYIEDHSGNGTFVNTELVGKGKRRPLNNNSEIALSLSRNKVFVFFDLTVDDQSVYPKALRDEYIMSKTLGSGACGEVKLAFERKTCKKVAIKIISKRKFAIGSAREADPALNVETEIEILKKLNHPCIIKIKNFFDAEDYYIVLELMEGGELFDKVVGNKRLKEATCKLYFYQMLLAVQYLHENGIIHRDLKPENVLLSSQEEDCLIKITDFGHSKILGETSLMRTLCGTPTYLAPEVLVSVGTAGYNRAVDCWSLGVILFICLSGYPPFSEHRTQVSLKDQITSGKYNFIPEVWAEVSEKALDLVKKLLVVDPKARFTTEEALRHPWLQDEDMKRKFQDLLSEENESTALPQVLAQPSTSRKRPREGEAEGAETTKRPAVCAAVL
EphB1 (h) (human), sequence (P54762 564-984 limits assumed): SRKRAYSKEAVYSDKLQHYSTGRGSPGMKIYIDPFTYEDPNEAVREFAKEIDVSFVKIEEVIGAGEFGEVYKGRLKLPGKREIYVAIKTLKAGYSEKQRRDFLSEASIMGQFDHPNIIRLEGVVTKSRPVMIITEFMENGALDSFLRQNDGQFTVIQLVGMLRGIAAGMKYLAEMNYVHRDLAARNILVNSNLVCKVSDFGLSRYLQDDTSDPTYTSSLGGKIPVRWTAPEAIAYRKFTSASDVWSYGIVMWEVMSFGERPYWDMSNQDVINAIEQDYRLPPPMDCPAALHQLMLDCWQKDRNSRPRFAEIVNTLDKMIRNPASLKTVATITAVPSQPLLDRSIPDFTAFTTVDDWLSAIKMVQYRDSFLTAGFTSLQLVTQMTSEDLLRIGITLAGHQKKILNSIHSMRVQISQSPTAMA
SAPK2a(T106M) (h) (human), sequence (Q16539 whole entry T106M): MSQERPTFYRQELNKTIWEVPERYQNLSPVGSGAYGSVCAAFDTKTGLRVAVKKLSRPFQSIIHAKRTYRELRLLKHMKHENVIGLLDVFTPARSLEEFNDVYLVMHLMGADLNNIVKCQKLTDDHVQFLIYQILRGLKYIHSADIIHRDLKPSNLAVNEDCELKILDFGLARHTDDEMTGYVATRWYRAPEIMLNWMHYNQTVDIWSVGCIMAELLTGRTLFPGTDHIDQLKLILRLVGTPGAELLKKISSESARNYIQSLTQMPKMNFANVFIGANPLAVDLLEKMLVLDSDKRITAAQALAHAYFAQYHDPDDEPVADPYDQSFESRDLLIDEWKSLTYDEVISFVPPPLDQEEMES
EphB4 (h) (human), sequence (P54760 561-987 limits assumed): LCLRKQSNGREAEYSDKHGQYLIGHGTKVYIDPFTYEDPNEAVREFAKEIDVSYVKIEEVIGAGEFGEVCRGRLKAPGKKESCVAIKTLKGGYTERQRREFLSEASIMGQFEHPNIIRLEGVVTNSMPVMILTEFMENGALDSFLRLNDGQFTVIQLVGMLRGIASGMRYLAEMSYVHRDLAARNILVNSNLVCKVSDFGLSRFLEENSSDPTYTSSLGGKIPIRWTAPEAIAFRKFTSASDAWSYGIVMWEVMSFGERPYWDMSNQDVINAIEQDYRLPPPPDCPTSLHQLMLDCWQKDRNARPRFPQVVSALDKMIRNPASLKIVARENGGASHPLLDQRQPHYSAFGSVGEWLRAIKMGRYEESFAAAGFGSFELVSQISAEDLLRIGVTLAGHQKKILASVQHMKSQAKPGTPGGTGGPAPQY

## MMI-0300 (peptide)
[1]
  % activity at 100 µM: 5%
CHK2(I157T) (h) (human)
  % activity at 100 µM: 43%
EphB1 (h) (human)
  % activity at 100 µM: 44%
EphB4 (h) (human)
  % activity at 100 µM: 44%
JAK2 (h) (human)
  % activity at 100 µM: 133%
LKB1 (h) (human)
  % activity at 100 µM: 101%
MARK1 (h) (human)
  % activity at 100 µM: 132%
MKK6 (h) (human)
  % activity at 100 µM: 48%
PRK2 (h) (human)
  % activity at 100 µM: 33%
PhKγ2 (h) (human)
  % activity at 100 µM: 46%
Rse (h) (human)
  % activity at 100 µM: 88%
[2]
  % activity at 100 µM: 97%
TBK1 (h) (human)
  % activity at 100 µM: 37%
